Measurements published in paper PMC3727329, “Combining crystallography and EPR: crystal and solution structures of the multidomain cochaperone DnaJ” (Acta Crystallographica Section D: Biological Crystallography, 2013).

Target: the molecule itself
Experiment: crystal structure; SeMet-DnaJ_(Δ108–114/4M), SeMet-SAD phasing, 2.9 Å; two dimers in the asymmetric unit; crystals from 14–16% PEG 6000, 0.1 M succinate/BTP pH 7.0 with adenine nucleotides

B1: SeMet-DnaJ_(Δ108–114/4M), Thermus thermophilus DnaJ lacking residues 108–114 with four residues substituted by methionine (natural protein, UniProt Q56237 1-280, looked up)
chain: MAAKKDYYAILGVPRNATQEEIKRAYKRLARQYHPDVNKSPEAEEKFKEINEAYAVMSDPEKRRIYDTYGTTEAPPPPPPGGYDFSGFDVEDFSEFFQELFGPGLFGKGRDLRAELPLTLEEAFHGGERVVEVAGRRVSVRMPPGVREGSVIRVPGMGGQGNPPGDLLLVVRMLPHPVFRLEGQDLYATLDVPAPIAVVGGKVRAMTLEGPVEVAVPPRTQAGRKMRLKGKGFPGPAGRGDLYLEVRITIPERLTPEEEALWKKLAEAYYARA
modifications: selenomethionine in place of methionine
notes: DnaJ (type II DnaJ, Hsp40 homologue) of Thermus thermophilus with J, GF and C-terminal domains; chains A-D of the model hold residues 2-272; Cloned NcoI/NotI into pET24d; also called DnaJ_(108114/4M); source: E. coli BL21(DE3) in minimal medium with L-selenomethionine, purified (heat denaturation, Ni-NTA, Superdex 200)
B1: binds.
